Two proteins from patent US20030170252 can be followed below.

In data set [1] the target is T1, p63^Krsl protein kinase (product of the Krsl gene), endogenous in mouse NIH3T3 cytosolic lysate (S20), Q9JI10.
T1 chain: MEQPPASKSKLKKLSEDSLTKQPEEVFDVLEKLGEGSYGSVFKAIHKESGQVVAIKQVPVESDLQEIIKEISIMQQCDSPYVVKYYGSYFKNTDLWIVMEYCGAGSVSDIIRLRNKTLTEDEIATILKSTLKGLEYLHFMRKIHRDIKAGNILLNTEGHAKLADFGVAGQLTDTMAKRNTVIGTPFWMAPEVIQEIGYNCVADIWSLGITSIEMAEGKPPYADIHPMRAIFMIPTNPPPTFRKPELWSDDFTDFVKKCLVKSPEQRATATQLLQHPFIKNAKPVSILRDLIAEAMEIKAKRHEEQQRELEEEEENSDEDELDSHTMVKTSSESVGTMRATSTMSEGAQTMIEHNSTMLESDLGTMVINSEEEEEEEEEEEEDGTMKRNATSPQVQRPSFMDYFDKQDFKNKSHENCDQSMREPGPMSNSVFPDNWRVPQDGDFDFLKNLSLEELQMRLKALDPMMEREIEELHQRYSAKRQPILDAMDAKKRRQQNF

Data set [2] addresses p35, protein kinase of 35 kDa in STSP-treated NIH3T3 cells.
Data set [3] addresses p33^QIK, quiescence induced kinase, 33-kDa Krsl-related cytoplasmic protein kinase, endogenous in mouse NIH3T3 cytosolic lysate (S20).

B1: Recombinant human Caspase-3 (Alexis Biochemicals) (protein)
chain: SGISLDNSYKMDYPEMGLCIIINNKNFHKSTGMTSRSGTDVDAANLRETFRNLKYEVRNKNDLTREEIVELMRDVSKEDHSKRSSFVCVLLSHGEEGIIFGTNGPVDLKKITNFFRGDRCRSLTGKPKLFIIQACRGTELDCGIETDSGVDDDMACHKIPVEADFLYAYSTAPGYYSWRNSKDGSWFIQSLCAMLKQYADKLEFMHILTRVNRKVATEFESFSFDATFHAKKQIPCIVSMLTKELYFYH
As to B1, the “kinase activity in Ab-KQ immune complexes after caspase-3 treatment (in-gel kinase assay, MBP substrate)” value in data set [1] is “both the kinase activities of p63^Krsl and p35 decreased in correlation with an increased p33^QIK activity that was completely blocked by a wide range caspase inhibitor Z-D-CH2-DCB”; in data set [2], “both the kinase activities of p63^Krsl and p35 decreased in correlation with an increased p33^QIK activity that was completely blocked by a wide range caspase inhibitor Z-D-CH2-DCB”; in data set [3], “no change was detected in the kinase activity of p33^QIK which was isolated from osmotic-stressed quiescent cultures (FIG. 8, lanes 6 to 8) or growing cultures”.

B2: Lambda protein phosphatase (lambda PPase) (NE BioLabs) (protein)
chain: MRYYEKIDGSKYRNIWVVGDLHGCYTNLMNKLDTIGFDNKKDLLISVGDLVDRGAENVECLELITFPWFRAVRGNHEQMMIDGLSERGNVNHWLLNGGGWFFNLDYDKEILAKALAHKADELPLIIELVSKDKKYVICHADYPFDEYEFGKPVDHQQVIWNRERISNSQNGIVKEIKGADTFIFGHTPAVKPLKFANQMYIDTGAVFCGNLTLIQVQGEGA
On to B2, for which the “kinase activity of p33^QIK in Ab-KQ immune complexes after phosphatase treatment (in-gel kinase assay, MBP substrate)” value in data set [3] is recorded as “A similar result was obtained by using Lambda phosphatase in the reaction”.
